This note sets out measurements from patent US20220411523A1.

The target of assay [1] is h4-1BB-His antigen (Acro company, product number: Q07011-1) (human) (UniProt Q07011). The assay is described as follows: BLI (Fortebio), h4-1BB-His. For orientation: Biolayer interferometry detects binding as a change in optical thickness at a sensor tip.
The target of assay [2] is human 4-1BB full length, on the cell surface (human) (UniProt Q07011). Description: FACS, transiently transfected Expi293 cells (WT). A general note: A flow cytometer gives signals particle by particle.
Chain of human 4-1BB full length, on the cell surface (human) (Q07011 24-255 limits assumed): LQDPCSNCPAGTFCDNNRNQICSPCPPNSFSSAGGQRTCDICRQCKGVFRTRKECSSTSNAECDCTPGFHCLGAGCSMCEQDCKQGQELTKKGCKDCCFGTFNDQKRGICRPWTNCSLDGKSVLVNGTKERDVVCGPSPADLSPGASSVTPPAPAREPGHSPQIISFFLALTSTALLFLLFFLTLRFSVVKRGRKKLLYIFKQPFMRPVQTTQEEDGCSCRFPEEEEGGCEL
Assay [3] addresses Human 4-1BB + Mouse 4-1BB domain1,2A,2B(aa24-86) (human; mouse). Description: FACS, transiently transfected Expi293 cells (cell A).
Assay [4] deals with Human 4-1BB + Mouse 4-1BB domain2B,3A,3B(aa64-118) (human; mouse) (UniProt Q07011). The assay is described as follows: FACS, transiently transfected Expi293 cells (cell B).
Chain of Human 4-1BB + Mouse 4-1BB domain2B,3A,3B(aa64-118) (human; mouse) (Q07011 other isoform, or with tags, fused parts or gaps): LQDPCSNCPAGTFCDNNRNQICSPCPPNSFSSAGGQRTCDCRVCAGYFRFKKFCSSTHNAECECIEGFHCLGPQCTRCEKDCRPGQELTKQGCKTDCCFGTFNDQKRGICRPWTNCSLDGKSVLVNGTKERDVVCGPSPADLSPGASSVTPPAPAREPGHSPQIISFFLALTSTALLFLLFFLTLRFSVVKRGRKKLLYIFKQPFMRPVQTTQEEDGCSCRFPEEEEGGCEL
In assay [5] the target is Human 4-1BB + Mouse 4-1BB domain3A,3B,4A(aa87-133) (human; mouse) (UniProt Q07011). The assay is described as follows: FACS, transiently transfected Expi293 cells (cell C).
Chain of Human 4-1BB + Mouse 4-1BB domain3A,3B,4A(aa87-133) (human; mouse) (Q07011 other isoform, or with tags, fused parts or gaps): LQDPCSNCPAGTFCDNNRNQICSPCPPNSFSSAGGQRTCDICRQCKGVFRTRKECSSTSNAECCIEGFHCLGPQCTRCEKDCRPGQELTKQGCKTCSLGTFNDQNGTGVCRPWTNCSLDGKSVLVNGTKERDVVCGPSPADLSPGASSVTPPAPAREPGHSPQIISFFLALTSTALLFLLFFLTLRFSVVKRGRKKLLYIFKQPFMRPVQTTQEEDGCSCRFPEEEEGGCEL
Assay [6] deals with Human 4-1BB + Mouse 4-1BB domain3B,4A,4B(aa97-159) (human; mouse) (UniProt Q07011). Description: FACS, transiently transfected Expi293 cells (cell D).
Chain of Human 4-1BB + Mouse 4-1BB domain3B,4A,4B(aa97-159) (human; mouse) (Q07011 other isoform, or with tags, fused parts or gaps): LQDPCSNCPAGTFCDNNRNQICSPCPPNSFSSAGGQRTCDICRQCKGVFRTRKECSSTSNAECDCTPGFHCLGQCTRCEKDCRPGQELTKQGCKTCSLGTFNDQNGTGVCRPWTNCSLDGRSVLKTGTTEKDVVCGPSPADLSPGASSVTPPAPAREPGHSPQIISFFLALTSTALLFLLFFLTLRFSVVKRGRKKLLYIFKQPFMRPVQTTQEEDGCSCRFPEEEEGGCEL
Assay [7] has as its target Human 4-1BB + Mouse 4-1BB domain4A,4B,NF(aa119-186) (human; mouse). Description: FACS, transiently transfected Expi293 cells (cell E).
The target of assay [8] is Human 4-1BB + Mouse 4-1BB domain1,4B,NF(aa24-46,aa139-186) (human; mouse). The assay is described as follows: FACS, transiently transfected Expi293 cells (cell F).
Chain of Human 4-1BB + Mouse 4-1BB domain1,4B,NF(aa24-46,aa139-186) (human; mouse) (chain, as listed by the source): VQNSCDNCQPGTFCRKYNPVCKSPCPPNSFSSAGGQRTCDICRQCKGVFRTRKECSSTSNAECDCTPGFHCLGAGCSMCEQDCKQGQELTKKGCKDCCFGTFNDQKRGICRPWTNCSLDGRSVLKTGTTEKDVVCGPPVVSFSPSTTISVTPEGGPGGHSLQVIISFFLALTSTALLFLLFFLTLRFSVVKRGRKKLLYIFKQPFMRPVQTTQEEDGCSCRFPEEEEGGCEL
For assay [9], the target named is human 4-1BB full length, on the cell surface (human) (UniProt Q07011). Description: FACS competition, CHO-K1-hu4-1BB; labelled Bio-4-1BBL 2 µg/ml fixed, competitor varied.
For assay [10] the target is unchanged. The assay is described as follows: FACS competition, CHO-K1-hu4-1BB; labelled Bio-Hanke10F4 1.5 µg/ml fixed, competitor varied.

Chain of Urelumab (antibody) (VH): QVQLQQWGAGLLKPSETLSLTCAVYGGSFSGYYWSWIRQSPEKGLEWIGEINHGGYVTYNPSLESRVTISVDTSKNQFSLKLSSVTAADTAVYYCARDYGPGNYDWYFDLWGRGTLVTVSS
Chain of Urelumab (antibody) (VL): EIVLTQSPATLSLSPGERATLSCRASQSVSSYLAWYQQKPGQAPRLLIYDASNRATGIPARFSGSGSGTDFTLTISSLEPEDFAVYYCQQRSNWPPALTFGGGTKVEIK
Chain of human 4-1BBL-hIgG (Fc fusion) (chain, part): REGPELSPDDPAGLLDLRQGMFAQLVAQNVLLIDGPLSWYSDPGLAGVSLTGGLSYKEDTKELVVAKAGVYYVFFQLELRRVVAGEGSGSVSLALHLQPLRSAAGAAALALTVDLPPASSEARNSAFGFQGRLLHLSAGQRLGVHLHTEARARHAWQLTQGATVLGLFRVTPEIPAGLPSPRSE
Chain of Human 4-1BB + Mouse 4-1BB domain1,2A,2B(aa24-86) (human; mouse) (chain, as listed by the source): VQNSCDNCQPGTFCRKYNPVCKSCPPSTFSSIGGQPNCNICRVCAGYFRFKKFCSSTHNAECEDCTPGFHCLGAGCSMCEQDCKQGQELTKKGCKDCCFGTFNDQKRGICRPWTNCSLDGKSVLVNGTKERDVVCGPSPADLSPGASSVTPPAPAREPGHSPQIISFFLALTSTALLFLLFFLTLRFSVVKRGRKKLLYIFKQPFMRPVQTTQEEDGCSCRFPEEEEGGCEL
Chain of Human 4-1BB + Mouse 4-1BB domain4A,4B,NF(aa119-186) (human; mouse) (chain, as listed by the source): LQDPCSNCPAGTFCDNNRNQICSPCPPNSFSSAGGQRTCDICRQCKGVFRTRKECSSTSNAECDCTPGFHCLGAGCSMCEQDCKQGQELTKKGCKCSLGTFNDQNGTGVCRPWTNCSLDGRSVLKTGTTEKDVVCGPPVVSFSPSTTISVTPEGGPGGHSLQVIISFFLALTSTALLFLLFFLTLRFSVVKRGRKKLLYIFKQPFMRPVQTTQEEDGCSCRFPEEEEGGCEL
Chain of h4-1BB-His antigen (Acro company, product number: Q07011-1) (human) (Q07011 24-186): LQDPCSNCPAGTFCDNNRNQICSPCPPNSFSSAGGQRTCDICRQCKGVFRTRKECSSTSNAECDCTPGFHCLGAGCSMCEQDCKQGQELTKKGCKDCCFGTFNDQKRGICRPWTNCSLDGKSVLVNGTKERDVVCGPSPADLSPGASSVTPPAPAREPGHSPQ

The term Kd denotes the free concentration of one partner at which half of the binding sites on the other are occupied at equilibrium, for simple one-to-one binding. A lower Kd goes with a tighter complex. Urelumab (antibody) registered a Kd in assay [1] of 5.76 nM. Further, the Mean fluorescence intensity was 146000 in [2]; 1820 in [3]; 313000 in assay [4]; 193000 in assay [5]; 123000 in [6]; 194000 in [7]. Moreover, the Mean fluorescence intensity in [8] was determined as 4910.

With Utomilumab (antibody), the Mean fluorescence intensity in assay [3] was 19000.

Consider human 4-1BBL-hIgG (Fc fusion), for which, in assay [9], the FACS signal of Bio-4-1BBL at (B:A) Ratio 0.03906 amounted to 7740, the FACS signal of Bio-4-1BBL at (B:A) Ratio 0.15625 is 7910, the FACS signal of Bio-4-1BBL at (B:A) Ratio 0.625 turned out to be 6850 and the FACS signal of Bio-4-1BBL at (B:A) Ratio 2.5 was 6320. Moreover, in [9], the FACS signal of Bio-4-1BBL at (B:A) Ratio 10 was 3770 and the FACS signal of Bio-4-1BBL at (B:A) Ratio 40 is 3220. Further, in assay [10], the FACS signal of Bio-Hanke10F4 at (B:A) Ratio 0.058593 is 6310, the FACS signal of Bio-Hanke10F4 at (B:A) Ratio 0.23437 was determined as 6580, the FACS signal of Bio-Hanke10F4 at (B:A) Ratio 0.9375 was 4860 and the FACS signal of Bio-Hanke10F4 at (B:A) Ratio 3.75 amounted to 2290. In addition, in assay [10], the FACS signal of Bio-Hanke10F4 at (B:A) Ratio 15 is 584 and the FACS signal of Bio-Hanke10F4 at (B:A) Ratio 60 came to 254.
